Patent US20230212549A1, “COMPOUNDS COMPRISING A […] LIGAND AND USE THEREOF” (priority 2021, published 2023)
Values belong to the binder of their own block, whether it stands above or below them. Bridge positions count the residues as written; N and C are the ends.

What was measured:
Assay in all cases: radioligand displacement (antagonist radioligand), 10 µM
[1] = biological target: beta 2 (h) (human), P07550; conditions: remark: other sources report otherwise
[2] = biological target: T1, alpha 1A (h) (human), P35348; conditions: remark: other sources report otherwise
T1 chain: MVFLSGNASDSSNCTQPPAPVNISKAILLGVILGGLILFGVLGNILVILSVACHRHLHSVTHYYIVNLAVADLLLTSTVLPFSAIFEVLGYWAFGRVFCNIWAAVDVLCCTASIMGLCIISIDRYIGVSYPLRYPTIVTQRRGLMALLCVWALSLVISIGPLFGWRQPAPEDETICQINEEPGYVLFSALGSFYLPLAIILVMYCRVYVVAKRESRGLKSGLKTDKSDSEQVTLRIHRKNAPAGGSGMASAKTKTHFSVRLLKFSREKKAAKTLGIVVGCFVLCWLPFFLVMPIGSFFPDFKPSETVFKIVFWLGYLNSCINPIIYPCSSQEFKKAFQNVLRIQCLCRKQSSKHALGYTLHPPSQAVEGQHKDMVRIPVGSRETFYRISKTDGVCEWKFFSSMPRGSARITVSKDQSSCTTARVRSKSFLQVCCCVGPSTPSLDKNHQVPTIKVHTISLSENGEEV

[3] = biological target: 5-HT1B(h) (human), P28222; conditions: remark: other sources report otherwise
[4] = biological target: norepinephrine transporter (h) (human), P23975; conditions: remark: other sources report otherwise
[5] = biological target: 5-HT transporter (h) (human), P31645; conditions: remark: other sources report otherwise
[6] = biological target: T2, dopamine transporter (h) (human), Q01959; conditions: remark: other sources report otherwise
T2 chain: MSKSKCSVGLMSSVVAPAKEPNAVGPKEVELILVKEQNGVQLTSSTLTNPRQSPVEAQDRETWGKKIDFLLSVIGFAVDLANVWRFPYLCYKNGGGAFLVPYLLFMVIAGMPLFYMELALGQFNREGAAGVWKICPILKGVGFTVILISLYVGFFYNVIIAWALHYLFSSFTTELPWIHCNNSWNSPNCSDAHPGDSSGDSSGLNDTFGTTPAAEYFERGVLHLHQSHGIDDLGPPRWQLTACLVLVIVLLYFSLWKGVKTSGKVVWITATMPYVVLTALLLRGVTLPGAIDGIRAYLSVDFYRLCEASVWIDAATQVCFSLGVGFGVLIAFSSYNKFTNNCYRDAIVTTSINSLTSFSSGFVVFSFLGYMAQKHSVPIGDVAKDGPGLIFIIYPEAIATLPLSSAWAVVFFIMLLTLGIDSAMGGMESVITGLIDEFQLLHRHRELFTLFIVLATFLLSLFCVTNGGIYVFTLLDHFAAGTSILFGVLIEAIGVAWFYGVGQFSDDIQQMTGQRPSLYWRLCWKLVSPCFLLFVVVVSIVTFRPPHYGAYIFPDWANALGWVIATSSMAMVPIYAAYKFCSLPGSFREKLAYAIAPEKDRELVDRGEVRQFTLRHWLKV

KV channel = biological target: KV channel
M1 (h) (human), P11229 = biological target: T3, M1 (h) (human), P11229; conditions: remark: other sources report otherwise
T3 chain: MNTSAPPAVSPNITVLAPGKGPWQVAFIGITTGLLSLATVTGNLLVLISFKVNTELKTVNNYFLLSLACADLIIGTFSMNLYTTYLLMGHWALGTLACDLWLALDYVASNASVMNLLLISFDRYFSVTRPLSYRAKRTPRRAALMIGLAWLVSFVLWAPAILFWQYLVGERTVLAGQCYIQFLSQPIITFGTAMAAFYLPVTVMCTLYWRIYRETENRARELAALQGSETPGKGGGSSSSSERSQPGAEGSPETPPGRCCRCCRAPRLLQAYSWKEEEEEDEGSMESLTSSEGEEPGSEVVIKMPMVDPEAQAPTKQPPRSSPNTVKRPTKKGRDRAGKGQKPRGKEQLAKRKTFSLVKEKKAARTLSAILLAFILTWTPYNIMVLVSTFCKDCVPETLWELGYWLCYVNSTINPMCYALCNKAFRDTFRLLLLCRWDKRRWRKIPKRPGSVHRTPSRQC

D1 (h) (human), P21728 = biological target: T4, D1 (h) (human), P21728; conditions: remark: other sources report otherwise
T4 chain: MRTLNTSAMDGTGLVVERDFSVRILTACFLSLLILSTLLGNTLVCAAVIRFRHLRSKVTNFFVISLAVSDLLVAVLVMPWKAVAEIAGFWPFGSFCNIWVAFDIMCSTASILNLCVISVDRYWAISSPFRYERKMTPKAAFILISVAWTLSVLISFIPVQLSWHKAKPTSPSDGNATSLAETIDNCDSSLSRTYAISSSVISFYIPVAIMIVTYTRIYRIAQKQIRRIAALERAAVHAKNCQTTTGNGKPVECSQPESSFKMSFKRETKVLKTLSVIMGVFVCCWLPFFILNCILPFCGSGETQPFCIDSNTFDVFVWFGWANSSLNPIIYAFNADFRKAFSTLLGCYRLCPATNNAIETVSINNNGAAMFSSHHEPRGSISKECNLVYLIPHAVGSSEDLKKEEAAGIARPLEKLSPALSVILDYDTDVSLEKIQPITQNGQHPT

[7] = biological target: T5, alpha 2A (h) (human), P08913; conditions: remark: other sources report otherwise
T5 chain: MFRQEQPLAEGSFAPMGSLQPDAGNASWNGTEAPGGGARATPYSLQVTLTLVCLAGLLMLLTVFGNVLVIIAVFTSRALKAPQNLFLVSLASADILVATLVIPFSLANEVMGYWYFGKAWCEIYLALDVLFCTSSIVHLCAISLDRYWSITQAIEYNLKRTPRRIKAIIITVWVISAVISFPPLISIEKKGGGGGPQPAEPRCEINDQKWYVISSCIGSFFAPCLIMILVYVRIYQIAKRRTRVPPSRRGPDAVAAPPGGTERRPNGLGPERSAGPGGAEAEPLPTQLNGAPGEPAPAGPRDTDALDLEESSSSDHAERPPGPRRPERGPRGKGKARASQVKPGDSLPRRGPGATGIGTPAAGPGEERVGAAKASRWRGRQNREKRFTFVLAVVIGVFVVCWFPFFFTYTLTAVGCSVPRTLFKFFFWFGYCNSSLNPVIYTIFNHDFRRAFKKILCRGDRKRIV

Chain of norepinephrine transporter (h) (human), P23975 (P23975 whole entry): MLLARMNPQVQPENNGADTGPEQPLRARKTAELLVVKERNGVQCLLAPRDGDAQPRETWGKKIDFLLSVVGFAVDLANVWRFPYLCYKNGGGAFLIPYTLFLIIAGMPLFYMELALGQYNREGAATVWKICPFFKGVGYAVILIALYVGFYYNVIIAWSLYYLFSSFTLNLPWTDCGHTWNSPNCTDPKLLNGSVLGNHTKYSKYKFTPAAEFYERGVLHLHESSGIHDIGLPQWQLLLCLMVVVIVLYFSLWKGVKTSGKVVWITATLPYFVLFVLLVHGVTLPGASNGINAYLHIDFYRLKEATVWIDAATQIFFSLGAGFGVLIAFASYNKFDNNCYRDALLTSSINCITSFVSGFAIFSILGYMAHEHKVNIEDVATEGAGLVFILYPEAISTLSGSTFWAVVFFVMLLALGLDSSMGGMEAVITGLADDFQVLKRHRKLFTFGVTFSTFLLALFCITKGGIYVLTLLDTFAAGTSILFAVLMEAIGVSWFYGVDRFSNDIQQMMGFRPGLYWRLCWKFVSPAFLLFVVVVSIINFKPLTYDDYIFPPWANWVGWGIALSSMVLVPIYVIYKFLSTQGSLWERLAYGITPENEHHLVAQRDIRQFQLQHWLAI
Chain of 5-HT transporter (h) (human), P31645 (P31645 whole entry): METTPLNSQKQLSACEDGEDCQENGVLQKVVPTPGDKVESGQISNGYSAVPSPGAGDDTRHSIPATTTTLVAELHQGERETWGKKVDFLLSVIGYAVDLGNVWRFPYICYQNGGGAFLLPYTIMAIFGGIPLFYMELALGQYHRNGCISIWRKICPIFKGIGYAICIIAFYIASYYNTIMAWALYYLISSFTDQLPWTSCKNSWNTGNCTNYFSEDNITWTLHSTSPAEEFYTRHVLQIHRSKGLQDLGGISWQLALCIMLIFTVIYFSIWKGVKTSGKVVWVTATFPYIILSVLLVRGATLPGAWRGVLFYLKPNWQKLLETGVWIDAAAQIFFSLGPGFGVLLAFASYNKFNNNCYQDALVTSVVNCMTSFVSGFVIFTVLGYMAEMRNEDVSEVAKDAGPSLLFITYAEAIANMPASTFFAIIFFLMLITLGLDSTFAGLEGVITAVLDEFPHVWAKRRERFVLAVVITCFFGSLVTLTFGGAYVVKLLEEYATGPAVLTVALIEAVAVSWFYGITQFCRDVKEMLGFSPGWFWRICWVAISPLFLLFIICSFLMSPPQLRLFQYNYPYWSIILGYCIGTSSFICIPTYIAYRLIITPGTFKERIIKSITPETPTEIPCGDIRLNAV
Chain of 5-HT1B(h) (human), P28222 (P28222 whole entry): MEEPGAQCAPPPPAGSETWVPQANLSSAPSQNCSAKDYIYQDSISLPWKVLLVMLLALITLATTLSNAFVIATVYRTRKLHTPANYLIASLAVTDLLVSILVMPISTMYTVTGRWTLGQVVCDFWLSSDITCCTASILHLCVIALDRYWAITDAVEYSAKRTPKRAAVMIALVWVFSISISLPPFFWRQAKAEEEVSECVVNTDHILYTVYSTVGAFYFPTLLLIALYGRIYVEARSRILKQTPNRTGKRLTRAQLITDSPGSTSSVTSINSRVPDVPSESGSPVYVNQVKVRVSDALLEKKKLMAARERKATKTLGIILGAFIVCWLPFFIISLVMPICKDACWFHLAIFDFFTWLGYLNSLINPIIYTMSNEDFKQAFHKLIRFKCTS

% Inhibition of Specific Binding [1]: 8%
% Inhibition of Specific Binding [2]: -12%
% Inhibition of Specific Binding [3]: 8%
% Inhibition of Specific Binding [4]: -5%
% Inhibition of Specific Binding [5]: -8%
% Inhibition of Specific Binding [6]: 7%
% Inhibition of Specific Binding (KV channel): 4%
% Inhibition of Specific Binding (M1 (h) (human), P11229): 8%
% Inhibition of Specific Binding (D1 (h) (human), P21728): 7%
% Inhibition of Specific Binding [7]: 2%
B1: Hex-[Cys(tMeBn(DOTA-AET))-Pro-Pro-Thr-Gln-Phe-Cys]-OH (peptide)
peptide: Hex-CPPTQFC-OH
modifications: bridge 1-7; not fully specified (bridges); printed as Hex-[Cys(tMeBn(DOTA-AET))-Pro-Pro-Thr-Gln-Phe-Cys]-OH

B2: Hex-[Cys(tMeBn(DOTA-PP))-Pro-Pro-Thr-Gln-Phe-Cys]-Asp-NH2 (peptide)
peptide: Hex-CPPTQFCD-NH2
modifications: bridge 1-7; not fully specified (bridges); printed as Hex-[Cys(tMeBn(DOTA-PP))-Pro-Pro-Thr-Gln-Phe-Cys]-Asp-NH2
% Inhibition of Specific Binding [1]: 4%
% Inhibition of Specific Binding [2]: 2%
% Inhibition of Specific Binding [3]: -11%
% Inhibition of Specific Binding [4]: -8%
% Inhibition of Specific Binding [5]: -3%
% Inhibition of Specific Binding [6]: 12%
% Inhibition of Specific Binding (KV channel): -5%
% Inhibition of Specific Binding (M1 (h) (human), P11229): 6%
% Inhibition of Specific Binding (D1 (h) (human), P21728): 0%
% Inhibition of Specific Binding [7]: -9%
